Assay results reported in paper PMC6202052.
pKd: −log10 of the molar value. Each block holds one substance with its values, some of them ahead of it.

Key:
[1] = target: biotinylated human N1 ectodomain fragment containing EGF repeats 6–15 (human) (UniProt P46531); experiment: BLI; BLItz instrument; biotinylated Notch1 fragment loaded on streptavidin biosensors, dipped into ligand samples of varying concentration until equilibrium; HBS-P buffer with 0.005% surfactant P20 and 5 mM CaCl2; equilibrium curves fitted with a one site specific binding model
[2] = target: Notch1 expressed in N1rep ES cells (UniProt Q01705)
[3] = target: Notch1 expressed in N1rep ES cells (UniProt Q01705); remark: listed apart in the source
[4] = target: Notch2 expressed in N2rep ES cells (UniProt O35516)

Sequence of mDLL4 (mouse DLL4, full length, expressed on ES cells) (Q9JI71 27-686): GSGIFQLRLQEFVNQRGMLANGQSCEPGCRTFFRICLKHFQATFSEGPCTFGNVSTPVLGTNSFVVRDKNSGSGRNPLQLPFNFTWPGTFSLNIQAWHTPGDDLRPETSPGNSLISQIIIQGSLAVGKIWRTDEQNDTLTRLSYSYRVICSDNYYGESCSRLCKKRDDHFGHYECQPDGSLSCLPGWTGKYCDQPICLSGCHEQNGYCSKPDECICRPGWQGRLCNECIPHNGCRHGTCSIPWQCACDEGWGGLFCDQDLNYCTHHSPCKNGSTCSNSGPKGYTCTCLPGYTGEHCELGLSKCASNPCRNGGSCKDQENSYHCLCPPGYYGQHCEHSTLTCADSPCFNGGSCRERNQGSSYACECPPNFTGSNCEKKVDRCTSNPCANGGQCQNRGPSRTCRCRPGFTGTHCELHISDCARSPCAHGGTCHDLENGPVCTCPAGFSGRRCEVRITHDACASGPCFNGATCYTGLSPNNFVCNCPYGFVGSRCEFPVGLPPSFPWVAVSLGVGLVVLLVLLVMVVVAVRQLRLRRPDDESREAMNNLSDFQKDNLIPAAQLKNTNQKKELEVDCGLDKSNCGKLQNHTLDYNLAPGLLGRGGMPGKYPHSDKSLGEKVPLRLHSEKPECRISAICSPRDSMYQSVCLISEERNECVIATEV
Sequence of Notch1 expressed in N1rep ES cells (Q01705 19-2531): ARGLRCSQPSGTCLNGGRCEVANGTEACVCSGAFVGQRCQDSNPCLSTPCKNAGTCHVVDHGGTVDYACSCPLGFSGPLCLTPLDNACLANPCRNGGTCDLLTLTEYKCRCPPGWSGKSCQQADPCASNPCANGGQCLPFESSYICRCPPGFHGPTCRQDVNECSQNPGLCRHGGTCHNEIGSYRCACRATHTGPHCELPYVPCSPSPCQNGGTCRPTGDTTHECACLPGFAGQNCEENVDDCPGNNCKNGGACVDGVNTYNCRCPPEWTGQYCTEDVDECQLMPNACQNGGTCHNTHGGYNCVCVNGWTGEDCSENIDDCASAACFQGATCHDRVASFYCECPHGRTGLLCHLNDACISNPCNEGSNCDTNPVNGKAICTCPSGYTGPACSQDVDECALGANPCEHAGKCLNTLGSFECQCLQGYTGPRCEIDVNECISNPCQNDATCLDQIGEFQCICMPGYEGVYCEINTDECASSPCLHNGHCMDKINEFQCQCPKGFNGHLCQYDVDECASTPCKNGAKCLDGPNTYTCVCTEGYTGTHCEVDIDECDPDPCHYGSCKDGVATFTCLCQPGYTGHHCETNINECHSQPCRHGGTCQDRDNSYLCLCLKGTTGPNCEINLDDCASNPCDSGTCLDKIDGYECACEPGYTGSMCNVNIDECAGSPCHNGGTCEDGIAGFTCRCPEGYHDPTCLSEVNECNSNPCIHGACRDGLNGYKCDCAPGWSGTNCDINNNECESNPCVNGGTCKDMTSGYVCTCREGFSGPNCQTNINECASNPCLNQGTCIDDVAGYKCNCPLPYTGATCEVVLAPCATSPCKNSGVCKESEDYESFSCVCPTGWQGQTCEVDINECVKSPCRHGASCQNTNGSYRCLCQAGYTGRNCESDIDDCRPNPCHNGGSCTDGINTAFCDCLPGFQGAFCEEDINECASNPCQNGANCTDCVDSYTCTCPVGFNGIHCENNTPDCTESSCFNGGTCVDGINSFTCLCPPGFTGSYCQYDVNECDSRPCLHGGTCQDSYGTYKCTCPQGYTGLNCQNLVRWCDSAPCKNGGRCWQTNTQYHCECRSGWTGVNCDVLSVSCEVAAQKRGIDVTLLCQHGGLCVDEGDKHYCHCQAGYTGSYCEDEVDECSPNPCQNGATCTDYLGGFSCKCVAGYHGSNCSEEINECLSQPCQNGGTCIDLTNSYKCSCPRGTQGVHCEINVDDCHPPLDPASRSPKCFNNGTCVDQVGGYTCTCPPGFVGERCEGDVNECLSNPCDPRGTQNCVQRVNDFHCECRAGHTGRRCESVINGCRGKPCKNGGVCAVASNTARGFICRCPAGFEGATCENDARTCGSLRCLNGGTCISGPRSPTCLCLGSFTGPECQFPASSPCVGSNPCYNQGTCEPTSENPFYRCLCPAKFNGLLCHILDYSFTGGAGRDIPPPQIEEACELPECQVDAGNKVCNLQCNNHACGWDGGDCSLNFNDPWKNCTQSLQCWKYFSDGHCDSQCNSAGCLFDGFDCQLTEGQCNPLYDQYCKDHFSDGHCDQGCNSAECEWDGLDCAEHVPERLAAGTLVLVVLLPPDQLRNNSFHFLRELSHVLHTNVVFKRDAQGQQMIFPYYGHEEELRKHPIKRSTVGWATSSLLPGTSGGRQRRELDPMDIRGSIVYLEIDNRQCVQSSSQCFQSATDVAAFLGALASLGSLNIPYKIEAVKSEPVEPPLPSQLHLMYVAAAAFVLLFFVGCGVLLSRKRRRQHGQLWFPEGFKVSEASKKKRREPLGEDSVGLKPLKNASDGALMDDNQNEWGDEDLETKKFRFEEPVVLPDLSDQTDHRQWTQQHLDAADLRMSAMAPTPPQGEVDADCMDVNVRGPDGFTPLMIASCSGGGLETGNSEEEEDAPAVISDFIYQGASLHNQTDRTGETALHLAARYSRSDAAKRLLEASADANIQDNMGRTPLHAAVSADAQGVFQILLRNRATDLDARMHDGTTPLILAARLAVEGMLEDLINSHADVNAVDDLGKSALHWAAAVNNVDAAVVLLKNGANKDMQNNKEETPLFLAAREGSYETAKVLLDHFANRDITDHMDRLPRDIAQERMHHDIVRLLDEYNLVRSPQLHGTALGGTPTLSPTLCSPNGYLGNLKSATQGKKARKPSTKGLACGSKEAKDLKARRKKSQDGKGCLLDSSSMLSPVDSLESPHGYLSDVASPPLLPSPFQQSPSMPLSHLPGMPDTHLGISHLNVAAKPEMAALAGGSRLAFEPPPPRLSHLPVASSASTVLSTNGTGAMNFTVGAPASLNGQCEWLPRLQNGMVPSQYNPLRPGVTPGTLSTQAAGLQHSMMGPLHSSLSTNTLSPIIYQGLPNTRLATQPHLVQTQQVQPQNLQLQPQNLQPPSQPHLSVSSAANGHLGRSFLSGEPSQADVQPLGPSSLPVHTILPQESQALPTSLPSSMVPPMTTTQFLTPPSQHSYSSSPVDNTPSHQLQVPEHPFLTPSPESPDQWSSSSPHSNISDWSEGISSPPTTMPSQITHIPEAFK
Sequence of biotinylated human N1 ectodomain fragment containing EGF repeats 6–15 (human) (P46531 216-604): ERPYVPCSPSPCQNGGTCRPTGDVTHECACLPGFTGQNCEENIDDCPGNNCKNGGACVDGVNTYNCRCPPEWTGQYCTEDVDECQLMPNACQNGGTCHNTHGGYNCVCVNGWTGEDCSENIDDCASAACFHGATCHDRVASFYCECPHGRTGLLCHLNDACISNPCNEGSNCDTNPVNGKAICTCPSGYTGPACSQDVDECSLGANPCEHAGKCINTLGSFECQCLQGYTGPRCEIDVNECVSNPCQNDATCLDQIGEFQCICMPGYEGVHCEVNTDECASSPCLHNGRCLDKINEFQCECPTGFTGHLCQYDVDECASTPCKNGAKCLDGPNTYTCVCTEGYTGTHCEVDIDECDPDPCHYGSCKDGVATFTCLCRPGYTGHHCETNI
Sequence of mDLL1 (mouse DLL1, full length, expressed on ES cells) (Q61483 18-722): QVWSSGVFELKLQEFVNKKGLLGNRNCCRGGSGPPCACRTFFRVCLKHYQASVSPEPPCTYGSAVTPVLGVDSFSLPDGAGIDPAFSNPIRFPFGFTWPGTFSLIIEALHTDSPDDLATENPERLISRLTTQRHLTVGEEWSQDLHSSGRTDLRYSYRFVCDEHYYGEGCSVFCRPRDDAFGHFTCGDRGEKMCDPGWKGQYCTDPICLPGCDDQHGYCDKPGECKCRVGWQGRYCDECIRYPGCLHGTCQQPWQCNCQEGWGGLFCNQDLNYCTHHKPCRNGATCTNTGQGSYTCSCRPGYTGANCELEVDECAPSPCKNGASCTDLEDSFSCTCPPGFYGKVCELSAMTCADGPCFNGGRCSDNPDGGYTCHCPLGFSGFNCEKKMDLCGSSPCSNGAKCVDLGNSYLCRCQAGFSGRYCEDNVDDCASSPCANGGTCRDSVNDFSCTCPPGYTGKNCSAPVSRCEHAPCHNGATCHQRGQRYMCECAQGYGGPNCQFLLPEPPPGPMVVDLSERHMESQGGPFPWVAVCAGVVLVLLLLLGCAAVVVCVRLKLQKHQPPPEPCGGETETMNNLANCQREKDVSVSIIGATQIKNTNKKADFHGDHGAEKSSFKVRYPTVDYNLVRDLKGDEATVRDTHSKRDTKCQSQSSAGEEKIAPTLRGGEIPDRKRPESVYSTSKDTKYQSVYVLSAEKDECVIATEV

- pKd [1]: 6.49
Substance: D1contD4 (DLL1 N-terminus through EGF5 with the N1 contact amino acids of the MNNL and DSL domains replaced by those of DLL4) (domain or fragment)

- pKd [1]: 6.47
Substance: D4^N109G (DLL4 N-terminus through EGF5 with the N109G mutation) (from UniProt Q9JI71 27-686) (domain or fragment)

- pKd [1]: 6.49
Substance: D4contD1 (DLL4 N-terminus through EGF5 with the N1 contact amino acids of the MNNL and DSL domains replaced by those of DLL1) (domain or fragment)

- luciferase Notch reporter in N1rep ES cells co-cultured with DLL1-expressing ES cells, against the basal signal with E14 ES cells [2]: 10 fold
Substance: mDLL1 (mouse DLL1, full length, expressed on ES cells) (from UniProt Q61483 18-722) (ligand)

- luciferase Notch reporter in N1rep ES cells co-cultured with ligand-expressing ES cells; activation by DLL4 as fold of activation by DLL1, non-normalized [3]: 12.5 fold of DLL1
- luciferase Notch reporter in N1rep ES cells co-cultured with ligand-expressing ES cells; activation by DLL4 normalized to DLL1 activation and corrected for protein expression and cell surface levels [3]: 9.42 fold of DLL1
- luciferase Notch reporter in N2rep ES cells co-cultured with ligand-expressing ES cells; activation by DLL4 as fold of activation by DLL1, non-normalized [4]: 0.468 fold of DLL1
- luciferase Notch reporter in N2rep ES cells co-cultured with ligand-expressing ES cells; activation by DLL4 normalized to DLL1 activation and corrected for protein expression and cell surface levels [4]: 0.35 fold of DLL1
Substance: mDLL4 (mouse DLL4, full length, expressed on ES cells) (from UniProt Q9JI71 27-686) (ligand)
